According to PMC7801659, “Shared and divergent phase separation and aggregation properties of brain-expressed ubiquilins” (Scientific Reports, 2021):

B1: UBQLN2^430–624 (domain or fragment, human)
chain: WLPAFLQQMQNPDTLSAMSNPRAMQALMQIQQGLQTLATEAPGLIPSFTPGVGVGVLGTAIGPVGPVTPIGPIGPIVPFTPIGPIGPIGPTGPAAPPGSTGSGGPTGPTVSSAAPSETTSPTSESGPNQQFIQQMVQALAGANAPQLPNPEVRFQQQLEQLNAMGFLNREANLQALIATGGDINAAIERLLGSQPS
notes: one tryptophan added at the N-terminus with the 6xHis tag (His6-W-); ubiquilin-2 (UBQLN2, PLIC-2), residues 430-624, from the fourth STI1 motif to the end of the protein, includes the PXX domain and the UBA domain; Plasmid pET3a-His6-W-UBQLN2^430–624 bought from Genscript; also called His6-W-UBQLN2^430–624; C-terminal UBQLN2 construct; source: E. coli Rosetta (DE3), purified (Ni-NTA, flow-through …)
B2: UBQLN4^444–601 (domain or fragment, human)
chain: WLPVFLQQMQNPESLSILTNPRAMQALLQIQQGLQTLQTEAPGLVPSLGSFGISRTPAPSAGSNAGSTPEAPTSSPATPATSSPTGASSAQQQLMQQMIQLLAGSGNSQVQTPEVRFQQQLEQLNSMGFINREANLQALIATGGDINAAIERLLGSQLS
notes: one tryptophan added at the N-terminus with the 6xHis tag (His6-W-); also called C-terminal UBQLN4 construct; source: E. coli Rosetta (DE3), purified (Ni-NTA, dialysis); not shown: His6, N-terminal, kept
B3: UBA^581–624 (domain or fragment, human)
chain: WRFQQQLEQLNAMGFLNREANLQALIATGGDINAAIERLLGSQPS
notes: one tryptophan added at the N-terminus with the 6xHis tag (His6-W-); ubiquilin-2 (UBQLN2), UBA domain, residues 581-624; The methods on expression and purification name only the three longer constructs; also called His6-W-UBQLN2^581–624(UBA); isolated UBA domain from UBQLN2; source: recombinant, plasmid for bacterial expression (pET3a)
B4: UBQLN1^438–589 (domain or fragment, human)
chain: WLPTFLQQMQNPDTLSAMSNPRAMQALLQIQQGLQTLATEAPGLIPGFTPGLGALGSTGGSSGTNGSNATPSENTSPTAGTTEPGHQQFIQQMLQALAGVNPQLQNPEVRFQQQLEQLSAMGFLNREANLQALIATGGDINAAIERLLGSQPS
notes: one tryptophan added at the N-terminus with the 6xHis tag (His6-W-); also called C-terminal UBQLN1 construct; source: E. coli Rosetta (DE3), purified (Ni-NTA, dialysis); not shown: His6, N-terminal, kept

Target: the molecule itself
Test: ThioflavinT aggregation assay + transmission electron microscopy; 10 µM protein alone, 10 µM ThT, 0.1 M NaCl, 1 mM sodium azide, 20 mM Na phosphate pH 7.5, 37 °C, shaking at 200 rpm with Teflon beads; samples taken for negative-stain TEM at the end of the ThT assay; self-association into aggregates or fibrils

Binding result, binds:
B1
B2
B3
B4
